Non-standard residues stand in square brackets, D forms with d. Groups on a side chain read outwards from the residue. No end group written: not given here. *: point of attachment. PeptoidIsovaleric Acid = not defined here; Dip = N[C@H](C(=O)O)C(c1ccccc1)c1ccccc1; Palmitoyl = CCCCCCCCCCCCCCCC(=O)*; β3hF = N[C@H](CC(=O)O)Cc1ccccc1; Isovaleryl = CC(C)CC(=O)*; Ahx = NCCCCCC(=O)O
T1: ferroportin endogenously expressed on T47D cells (HTB 133, ATCC) (human, UniProt Q9NP59 1-571)
T1 sequence (looked up): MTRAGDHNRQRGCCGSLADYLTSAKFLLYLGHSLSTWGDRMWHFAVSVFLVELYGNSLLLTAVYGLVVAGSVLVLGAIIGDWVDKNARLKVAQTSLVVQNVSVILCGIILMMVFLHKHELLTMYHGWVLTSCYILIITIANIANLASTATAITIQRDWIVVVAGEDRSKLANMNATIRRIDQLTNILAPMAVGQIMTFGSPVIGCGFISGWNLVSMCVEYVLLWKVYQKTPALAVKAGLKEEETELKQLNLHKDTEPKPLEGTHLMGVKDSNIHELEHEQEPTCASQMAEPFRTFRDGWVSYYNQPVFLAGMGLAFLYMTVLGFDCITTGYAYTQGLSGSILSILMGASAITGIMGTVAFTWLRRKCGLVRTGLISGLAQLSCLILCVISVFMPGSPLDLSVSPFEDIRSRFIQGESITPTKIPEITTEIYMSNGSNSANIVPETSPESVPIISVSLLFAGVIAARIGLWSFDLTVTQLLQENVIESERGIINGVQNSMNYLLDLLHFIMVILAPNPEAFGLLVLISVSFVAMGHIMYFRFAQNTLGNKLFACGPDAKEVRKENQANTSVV

T2: human ferroportin (SLC40A1) fused in frame with GFP, stably expressed in HEK293 cells (human, UniProt Q9NP59 1-571)
T2 sequence (looked up): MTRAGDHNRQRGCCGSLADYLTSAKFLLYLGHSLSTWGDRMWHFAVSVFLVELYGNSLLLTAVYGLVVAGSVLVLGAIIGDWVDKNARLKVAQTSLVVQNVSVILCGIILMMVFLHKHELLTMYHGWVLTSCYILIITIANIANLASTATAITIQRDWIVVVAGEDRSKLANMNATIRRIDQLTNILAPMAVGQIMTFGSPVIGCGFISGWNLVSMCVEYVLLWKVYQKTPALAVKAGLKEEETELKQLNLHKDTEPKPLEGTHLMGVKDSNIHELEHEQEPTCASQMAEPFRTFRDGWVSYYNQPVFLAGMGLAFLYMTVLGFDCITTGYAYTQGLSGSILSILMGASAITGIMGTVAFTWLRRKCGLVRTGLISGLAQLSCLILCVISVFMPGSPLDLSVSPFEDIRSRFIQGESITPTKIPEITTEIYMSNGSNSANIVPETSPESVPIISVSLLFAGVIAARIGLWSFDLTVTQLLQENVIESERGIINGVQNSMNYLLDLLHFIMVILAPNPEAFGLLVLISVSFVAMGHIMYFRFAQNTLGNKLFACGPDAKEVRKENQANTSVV


target: T1, ferroportin endogenously expressed on …; assay: cell-based or functional assay

Row | T47D MSA IC50 [nM] | Binder
1 | 11.4 | Isovaleryl-ETHFPAIK([Ahx-Palmitoyl])FEPRSKGAK-NH2 (SMILES CCCCCCCCCCCCCCCC(=O)NCCCCCC(=O)NCCCC[C@H](NC(=O)[C@@H](NC(=O)[C@H](C)NC(=O)[C@@H]1CCCN1C(=O)[C@H](Cc1ccccc1)NC(=O)[C@H](Cc1c[nH]cn1)NC(=O)[C@@H](NC(=O)[C@H](CCC(=O)O)NC(=O)CC(C)C)[C@@H](C)O)[C@@H](C)CC)C(=O)N[C@@H](Cc1ccccc1)C(=O)N[C@@H](CCC(=O)O)C(=O)N1CCC[C@H]1C(=O)N[C@@H](CCCNC(=N)N)C(=O)N[C@@H](CO)C(=O)N[C@@H](CCCCN)C(=O)NCC(=O)N[C@@H](C)C(=O)N[C@@H](CCCCN)C(N)=O) [Isovaleric Acid-E-T-H-F-P-A-I-[Lys(Ahx_Palm)]-F-E-P-R-S-K-G-A-K-NH2]

target: T2, human ferroportin (SLC40A1) fused in …; assay: cell-based or functional assay

Row | FPN EC50 [nM] | Binder
2 | 177 | Isovaleryl-ETHFPAIK([Ahx-Palmitoyl])FEPRSKGAK-NH2 (SMILES CCCCCCCCCCCCCCCC(=O)NCCCCCC(=O)NCCCC[C@H](NC(=O)[C@@H](NC(=O)[C@H](C)NC(=O)[C@@H]1CCCN1C(=O)[C@H](Cc1ccccc1)NC(=O)[C@H](Cc1c[nH]cn1)NC(=O)[C@@H](NC(=O)[C@H](CCC(=O)O)NC(=O)CC(C)C)[C@@H](C)O)[C@@H](C)CC)C(=O)N[C@@H](Cc1ccccc1)C(=O)N[C@@H](CCC(=O)O)C(=O)N1CCC[C@H]1C(=O)N[C@@H](CCCNC(=N)N)C(=O)N[C@@H](CO)C(=O)N[C@@H](CCCCN)C(=O)NCC(=O)N[C@@H](C)C(=O)N[C@@H](CCCCN)C(N)=O) [Isovaleric Acid-E-T-H-F-P-A-I-[Lys(Ahx_Palm)]-F-E-P-R-S-K-G-A-K-NH2]

target: T2, human ferroportin (SLC40A1) fused in …; assay: cell-based or functional assay; remark: another data set of the same source

Row | Binder | FPN IC50 [nM]
3 | Isovaleryl-ETHAPAI[dK][β3hF]K([Ahx-Palmitoyl])[dK]A-NH2 (SMILES CCCCCCCCCCCCCCCC(=O)NCCCCCC(=O)NCCCC[C@H](NC(=O)C[C@H](Cc1ccccc1)NC(=O)[C@@H](CCCCN)NC(=O)[C@@H](NC(=O)[C@H](C)NC(=O)[C@@H]1CCCN1C(=O)[C@H](C)NC(=O)[C@H](Cc1c[nH]cn1)NC(=O)[C@@H](NC(=O)[C@H](CCC(=O)O)NC(=O)CC(C)C)[C@@H](C)O)[C@@H](C)CC)C(=O)N[C@H](CCCCN)C(=O)N[C@@H](C)C(N)=O) [Isovaleric Acid-E-T-H-A-P-A-I-[(D)Lys]-[bhPhe]-[Lys(Ahx_Palm)]-[(D)Lys]-A-NH2] | > 3000
4 | {PeptoidIsovaleric Acid}-ETH[Dip]PAIK([Ahx-Palmitoyl])[β3hF]-NH2 (reading uncertain) [PeptoidIsovaleric Acid-E-T-H-[Dpa]-P-A-I-[Lys(Ahx_Palm)]-[bhPhe]-NH2] | 1120
5 | Isovaleryl-ETH[Dip]PAIK([Ahx-Palmitoyl])[dK](Gal)-NH2 [Isovaleric Acid-E-T-H-[Dpa]-P-A-I-[Lys(Ahx_Palm)]-d[Lys(Gal-NH2] | 181
6 | Isovaleryl-KTH[Dip]PAIK([Ahx-Palmitoyl])[β3hF] [Isovaleric Acid-K-T-H-[Dpa]-P-A-I-[Lys(Ahx_Palm)]-[bhPhe]] | 126
7 | Isovaleryl-ETH[Dip]AAI[dK][β3hF]K([Ahx-Palmitoyl])[dK]A-NH2 (SMILES CCCCCCCCCCCCCCCC(=O)NCCCCCC(=O)NCCCC[C@H](NC(=O)C[C@H](Cc1ccccc1)NC(=O)[C@@H](CCCCN)NC(=O)[C@@H](NC(=O)[C@H](C)NC(=O)[C@H](C)NC(=O)[C@@H](NC(=O)[C@H](Cc1c[nH]cn1)NC(=O)[C@@H](NC(=O)[C@H](CCC(=O)O)NC(=O)CC(C)C)[C@@H](C)O)C(c1ccccc1)c1ccccc1)[C@@H](C)CC)C(=O)N[C@H](CCCCN)C(=O)N[C@@H](C)C(N)=O) [Isovaleric Acid-E-T-H-[Dpa]-A-A-I-[(D)Lys]-[bhPhe]-[Lys(Ahx_Palm)]-[(D)Lys]-A-NH2] | 183

Results, then the binder that gave them:

Row | FPN IC50 [nM] | Binder
8 | 2150 | K(Isovaleryl)TH[Dip]PAIK([Ahx-Palmitoyl])[bhF] (also: marks (1:1) at Lys1 and (1:2) at bhF9 not explained) [[Lys(IVA(1:1)-T-H-[Dpa]-P-A-I-[Lys(Ahx_Palm)]-bhF(1:2)]
9 | 76 | Isovaleryl-K(Gal)TH[Dip]PAIK([Ahx-Palmitoyl])[β3hF]-NH2 [Isovaleric Acid-[Lys(Gal)]-T-H-[Dpa]-P-A-I-[Lys(Ahx_Palm)]-[bhPhe]-NH2]
10 | 654 | Isovaleryl-ETH[Dip][dK](Gal)AIK([Ahx-Palmitoyl])[β3hF]-NH2 [Isovaleric Acid-E-T-H-[Dpa]-d[Lys(Gal)]-A-I-[Lys(Ahx_Palm)]-[bhPhe]-NH2]
11 | > 3000 | Isovaleryl-[dK](Gal)TH[Dip]PAIK([Ahx-Palmitoyl])[β3hF]-NH2 [Isovaleric Acid-d[Lys(Gal-T-H-[Dpa]-P-A-I-[Lys(Ahx_Palm)]-[bhPhe]-NH2]
12 | 246 | Isovaleryl-ETH[Dip]P[dK](Gal)IK([Ahx-Palmitoyl])[β3hF]-NH2 [Isovaleric Acid-E-T-H-[Dpa]-P-d[Lys(Gal)]-I-[Lys(Ahx_Palm)]-[bhPhe]-NH2]

— US20240066131A1 (Protagonist Therapeutics, Inc., priority 2020, published 2024)
